From patent US20250002585A1

Target: human PD-L1 on PD-L1 aAPC/CHO-K1 cells (human) (UniProt Q9NZQ7)
Sequence (Q9NZQ7 19-290): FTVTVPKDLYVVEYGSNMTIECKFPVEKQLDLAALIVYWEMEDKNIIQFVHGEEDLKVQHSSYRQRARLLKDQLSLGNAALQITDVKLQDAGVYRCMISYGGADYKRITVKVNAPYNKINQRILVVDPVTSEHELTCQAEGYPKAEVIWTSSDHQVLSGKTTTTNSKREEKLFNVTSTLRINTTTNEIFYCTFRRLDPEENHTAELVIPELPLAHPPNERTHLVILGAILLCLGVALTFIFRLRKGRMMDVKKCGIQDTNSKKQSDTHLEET

**Q.** For Atezolizumab (antibody), which EC50 (read off the curve), fold induction, PD1/PD-L1 blockade cell bioassay is on record?
**A.** Its EC50 (read off the curve), fold induction, PD1/PD-L1 blockade cell bioassay is 0.5 nM.
